Laboratory results reported in paper PMC12204462.

test system: AsCas12a; assay: BLI; conditions: not stated in material

Substance | Kd
cDNA with 5' handle | < 37 nM
crRNA (BLI) | 3.7 nM
ΨDNA (cDNA with 3' handle; BLI) | 24.5 nM
